# B1: Timp-3: naturally occurring peptides that regulate metalloprotease activity (protein, UniProt P35625 24-211, looked up)
# Metalloproteinase inhibitor 3: CTCSPSHPQDAFCNSDIVIRAKVVGKKLVKEGPFGTLVYTIKQMKMYRGFTKMPHVQYIHTEASESLCGLKLEVNKYQYLLTGRVYDGKMYTGLCNFVERWDQLTLSQRKGLNYRYHLGCNCKIKSCYYLPCFVTSKNECLWTDMLSNFGYPGYQSKHYACIRQKGGYCSWYRGWAPPDKSIINATDP
# Tested on: SKBR-3 cells
# Test: HER2 ECD ELISA of conditioned media (HER2 shedding), SKBR-3 cells
# Type: cell-based, human
# Details: 1 μg/ml
# Method: BT 474, MCF-7, and SKBR-3 cells were maintained in high-glucose DMEM:Ham's F12 (50:50) supplemented with 10% heat-inactivated FBS and 2 mM L-Glutamine. […] Cell lines were maintained at 37° C. in a humidified incubator supplied with 5% CO2. BT 474 and SKBR-3 cells were transiently transfected with constructs as described by electroporation using kit V according to the manufacturer's instructions (AMAXA™).
# Serum was diluted 1:50 using assay buffer (PBS/0.5% BSA, 0.05% TWEEN® 20/10 ppm PROCLIN® 300/0.2% BGG/0.25% CHAPS/0.15 M NaCl/5mM EDTA (pH 7.4) followed by additional 1:2 serial dilutions. Shed HER2 was captured using a goat anti-HER2 polyclonal antibody (Genentech) onto NUNC® Maxisorp plates and detected using a biotin-conjugated rabbit anti-HER2 polyclonal antibody (Genentech) followed by a AMDEX™-strepavidin-horseradish peroxidase antibody (Amersham Pharmacia Biotech) following a procedure described previously (Sias et al., J. Immunol. Meth. 109:219-27 (1990)). For cell culture experiments, cells were treated as indicated and conditioned media was collected and diluted in assay buffer serially 1:2. The concentration of shed HER2 in serum or in conditioned media was determined from a four-parameter fit of a standard curve using purified recombinant HER2 ECD protein (Genentech) as a standard.
# The pSIREN shRNA construct(s) or vector alone were transiently transfected into SKBR-3 and BT 474 cells using AMAXA™ kit V following manufacturer's recommendations. After 48 hours, conditioned media was collected and assayed for shed HER2 by HER2 ELISA and the cells were lysed directly on the plate using 2×Sample buffer.
molecule,measurement,value
B1,HER2 ECD levels in conditioned media,reduced HER2 ECD levels
